Measured values from the supplement of paper PMC9170038.

Test system: MS2 coat protein
Assay: apparent KD of MS2 coat protein; designed switch direction (-1 OFF switch, 1 ON switch): 1; higher = weaker reporter binding
Method in brief: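 Transcription of designed RNA switches on Illumina chips was done by stalled E. coli RNA polymerase. SNAP-549-labelled MS2 coat protein was then titrated in doubling steps from 0.7 or 1.5 nM to 3 µM, with steps of 0.8–1.5 h at the lowest and 10–20 min at the highest concentration. The per-design median over clusters of curve-fitted normalised fluorescence is reported as apparent KD.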

[1] = input ligand: microRNA oligo, concentration not stated

“GAGUAGUUAAAAGGAUAUUGAUUAUUGUAGGAUCAAGAAGGUUUUAACAUGAGGAUCACCCAUGUAGGACUAUAAAUGUGAAAA [Parity 93 - Jieux - Same State NG 1] (Eterna round: R96, puzzle: Same State NG 1)” was tested, and the “apparent KD of MS2 coat protein” value [1] was 12.5 nM.
With “UGAAUAGUGAUAGGAUAUACAUGAGGAAUCCUCGUAGAAGGAUCAUAACAUGAGGAUCACCCAUGUAGCCGUCCGUAGACGGCA [Mat - Same State NG 1 - JL mod - D56] (Eterna round: R96, puzzle: Same State NG 1)” the “apparent KD of MS2 coat protein” value (input ligand: FMN 200 uM) was 336 nM, the “apparent KD of MS2 coat protein” value [1] was 64 nM and the “apparent KD of MS2 coat protein” value (input ligand: none) was 117 nM.
In the case of “GUUACAUGAGGAUCACCCAUGUAUGUGUGGGAGUAAGUGUCUUAGGAUAUCUAGUAUUUAAUUAAAGAGAAGGAAGAUUGUUGU [JMF's solution 66] (Eterna round: R96, puzzle: Same State NG 3)”, the “apparent KD of MS2 coat protein” value (input ligand: FMN 200 uM) is reported as 126 nM, the “apparent KD of MS2 coat protein” value [1] is reported as 74.6 nM and the “apparent KD of MS2 coat protein” value (input ligand: none) is reported as 116 nM.
For “GUUACAUGAGGAUCACCCAUGUAUGUGUGGGAGUAAGUGUCUUAGGAUAUCUGUUAUCUAAUUUAAGAGAAGGAAGAUUGUUGU [JMF's solution 35] (Eterna round: R96, puzzle: Same State NG 3)”, the “apparent KD of MS2 coat protein” value (input ligand: FMN 200 uM) was 162 nM, the “apparent KD of MS2 coat protein” value [1] was 53.4 nM and the “apparent KD of MS2 coat protein” value (input ligand: none) was 87.2 nM.
With “UUCACCUUUUUUAACAUGAGGAUCACCCAUGUAUAUUGUACGUAGGAUAUCGAUGCUUUUUUUUUCGAGAAGGACGAUGUAAGU [JR_SSND3_Sub051] (Eterna round: R96, puzzle: Same State NG 3)” the “apparent KD of MS2 coat protein” value (input ligand: FMN 200 uM) was 38.6 nM, the “apparent KD of MS2 coat protein” value [1] was 34.2 nM and the “apparent KD of MS2 coat protein” value (input ligand: none) was 37.5 nM.
With “GUAAUCGUUAUAGGAUAUCAUGAGGAUUACCCAUGAGAAGGGUGAUCCCGAUCCAUAUUCAGAAAAUGAAUGUGGAUAGAUUGC [Omei NG1 A] (Eterna round: R96, puzzle: Same State NG 1)” the “apparent KD of MS2 coat protein” value (input ligand: FMN 200 uM) was 46.8 nM, the “apparent KD of MS2 coat protein” value [1] was 20.6 nM and the “apparent KD of MS2 coat protein” value (input ligand: none) was 55.4 nM.
For “UGUUGUAUUACAGGAUAUCUAUGAUUUUGAUUUAGAGAAGGGUAUUCACAUGAGGAUCACCCAUGUAUAUACGAGGAAGUUGUG [JMF's solution 64] (Eterna round: R96, puzzle: Same State NG 1)”, the “apparent KD of MS2 coat protein” value [1] was 40.4 nM.
In the case of “UCUUGGUUUUUGCUCGUUUUUUGUGUUGAACAUGAGGAUCACCCAUGUAUUGUACAAUCCGGUUUGAUGAUGGUCCA [JMF 47] (Eterna round: R96, puzzle: Sensor for hsa-mir-208a)”, the “apparent KD of MS2 coat protein” value (input ligand: FMN 200 uM) is reported as 125 nM, the “apparent KD of MS2 coat protein” value [1] is reported as 55.5 nM and the “apparent KD of MS2 coat protein” value (input ligand: none) is reported as 115 nM.
With “GGUCGGACUCACAUGAGGAUCACCCAUGUUGCGGAAACGCGACAGGAUAUCUGUCCGAAAAGGUCAGAGAAGGGUCAACCGACC [Fiskers NG3ss - 58] (Eterna round: R96, puzzle: Same State NG 3)” the “apparent KD of MS2 coat protein” value (input ligand: FMN 200 uM) was 853 nM, the “apparent KD of MS2 coat protein” value [1] was 431 nM and the “apparent KD of MS2 coat protein” value (input ligand: none) was 504 nM.
“AGAGCCGGCACUGAGGAUAUUCAUAUUAAAACAUGAGGAUCACCCAUGUAGGCCAGAAGGCCUUGGGAGAAGGCAGGUCGGCUCA [Mat - Same State 2 - Mod of UCT - D58] (puzzle: Same State 2)” was tested, and the “apparent KD of MS2 coat protein” value (Eterna round: R95, input ligand: FMN 200 uM) was 25.2 nM, the “apparent KD of MS2 coat protein” value (Eterna round: R95, input ligand: microRNA oligo, concentration not stated) was 212 nM and the “apparent KD of MS2 coat protein” value (Eterna round: R95, input ligand: none) was 484 nM.
With “AAAAUGUGAUGUUACAUGAGGAUCACCCAUGUAGUGACAACUAAGGAUAUCUGAAAAAAAGGAGAGGAGAAGGUAGGAUCACAA [AK SSNG3-V2-16.1] (Eterna round: R96, puzzle: Same State NG 3)” the “apparent KD of MS2 coat protein” value (input ligand: FMN 200 uM) was 25.7 nM, the “apparent KD of MS2 coat protein” value [1] was 26.4 nM and the “apparent KD of MS2 coat protein” value (input ligand: none) was 33.2 nM.
In the case of “GUUGAGAAAUAAGGAUAUGCAUGGAAGACACAUGAGGAUCACCCAUGUGGGAGGGAAACCAGGAGGUAGAAGGUAUUGGGAAAC [AK SSNG2-V2-23.1] (Eterna round: R96, puzzle: Same State NG 2)”, the “apparent KD of MS2 coat protein” value (input ligand: FMN 200 uM) is reported as 43.8 nM, the “apparent KD of MS2 coat protein” value [1] is reported as 28.7 nM and the “apparent KD of MS2 coat protein” value (input ligand: none) is reported as 49.1 nM.
With “UUGUGUUUGCGAGGAUAUCGUUUGUUGAAGUUACGAGAAGGCGCUCUCAUUACAUGAGGAUCACCCAUGUCUUUGAUGCAUGAU [JR_SSNG1_Sub071] (Eterna round: R96, puzzle: Same State NG 1)” the “apparent KD of MS2 coat protein” value (input ligand: FMN 200 uM) was 54.7 nM, the “apparent KD of MS2 coat protein” value [1] was 44.5 nM and the “apparent KD of MS2 coat protein” value (input ligand: none) was 68.2 nM.
In the case of “GGUCGGAACCACAUGAGGAUCACCCAUGUUCCGGAAACGGCGCAGGAUAUCUGUCCGAAAAGGUCAGAGAAGGGUGAACCGACC [Fiskers NG3ss - 78] (Eterna round: R96, puzzle: Same State NG 3)”, the “apparent KD of MS2 coat protein” value (input ligand: FMN 200 uM) is reported as 462 nM, the “apparent KD of MS2 coat protein” value [1] is reported as 314 nM and the “apparent KD of MS2 coat protein” value (input ligand: none) is reported as 236 nM.
For “GUGGAGAAUUAAGGAUAUUGAAUACAUAUGUUUAACAUGAGGAUCACCCAUGUGGGUUGCGGUAUCGAGAAGGUAAAUUACUGG [salish99_SSNG2_r04_033] (Eterna round: R96, puzzle: Same State NG 2)”, the “apparent KD of MS2 coat protein” value (input ligand: FMN 200 uM) was 126 nM, the “apparent KD of MS2 coat protein” value [1] was 74.3 nM and the “apparent KD of MS2 coat protein” value (input ligand: none) was 110 nM.
With “UUGAAUAAUUAAGGAUAUCGAGUACAUAUGUUAAACAUGAGGAUCACCCAUGUGGGUUGCGGUAUCGAGAAGGUAAAAGACAAG [Mat - Same State NG 2 - JL mod - D59] (Eterna round: R96, puzzle: Same State NG 2)” the “apparent KD of MS2 coat protein” value (input ligand: FMN 200 uM) was 31.2 nM, the “apparent KD of MS2 coat protein” value [1] was 25.6 nM and the “apparent KD of MS2 coat protein” value (input ligand: none) was 42 nM.
In the case of “CGUCGUUUGAUAGGAUAUCGCUUUCCAUGAGGAUCACCCAUGUUUACCACGCUGGUUUUUCUUUCCGAGAAGGAUUCUGAUGUU [salish99_SSNG02_r04_025] (Eterna round: R96, puzzle: Same State NG 2)”, the “apparent KD of MS2 coat protein” value (input ligand: FMN 200 uM) is reported as 169 nM, the “apparent KD of MS2 coat protein” value [1] is reported as 143 nM and the “apparent KD of MS2 coat protein” value (input ligand: none) is reported as 153 nM.
For “UAAGUAUGUUGAGGAUAUUAUGUUUAGUGUGAUGACAUGAGGAUCACCCAUGUGUUAUGAGUUUUUAAGAAGGCAACAUACUUA [JR_SSNG2_Sub091] (Eterna round: R96, puzzle: Same State NG 2)”, the “apparent KD of MS2 coat protein” value (input ligand: FMN 200 uM) was 35.1 nM, the “apparent KD of MS2 coat protein” value [1] was 41.7 nM and the “apparent KD of MS2 coat protein” value (input ligand: none) was 55.2 nM.
With “GCUACCAUUGAUGCCUACAUGAGGAUCACCCAUGUAUGUAGGCAGGAUAUCGAUUGCAAAGCGAUCGAGAAGGGCUUAGGUAGC [Mat - Same State NG 3 - JL Mod - D93] (Eterna round: R96, puzzle: Same State NG 3)” the “apparent KD of MS2 coat protein” value (input ligand: FMN 200 uM) was 56 nM, the “apparent KD of MS2 coat protein” value [1] was 103 nM and the “apparent KD of MS2 coat protein” value (input ligand: none) was 149 nM.
“AGGGAGGAUGCAGGAUAUAUAAGACAUGAGGAUCACCCAUGUACCUCGUGGAGAAGAAAGGAGAGAUAGAAGGGUAGAGAGGAA [Default title] (Eterna round: R96, puzzle: Same State NG 2)” was tested, and the “apparent KD of MS2 coat protein” value (input ligand: FMN 200 uM) was 314 nM, the “apparent KD of MS2 coat protein” value [1] was 288 nM and the “apparent KD of MS2 coat protein” value (input ligand: none) was 255 nM.
With “GUGGUCAGACAUGAGGAUCACCCAUGUGGAAUAAAUAACGACUAGGAUAUAUAAUAUAGGAUAUAAUAGAAGGAGUGAUUGGUG (Eterna round: R96, puzzle: Same State NG 3)” the “apparent KD of MS2 coat protein” value (input ligand: FMN 200 uM) was 72.3 nM, the “apparent KD of MS2 coat protein” value [1] was 49.5 nM and the “apparent KD of MS2 coat protein” value (input ligand: none) was 58.8 nM.
With “ACUAUUAAUGCAGGAUAUGAUUAACAUGAGGAUCACCCAUGUGGUGUUGUGAGUAAGGAGAGUGAUCAGAAGGGCAUUUUUUUU [JMF's solution 37] (Eterna round: R96, puzzle: Same State NG 2)” the “apparent KD of MS2 coat protein” value (input ligand: FMN 200 uM) was 992 nM, the “apparent KD of MS2 coat protein” value [1] was 466 nM and the “apparent KD of MS2 coat protein” value (input ligand: none) was 629 nM.
